Here are results for seven molecules from publication PMC10641069, “Intra- and inter-molecular regulation by intrinsically-disordered regions governs PUF protein RNA binding” (Nature Communications, 2023).

Usually Kd stands for the equilibrium constant for the complex coming apart. What is called koff is the first-order rate constant of dissociation. As usually defined, the kon is the rate constant with which the complex forms. High values mean fast association, low ones slow association.

In data set [1] the target is FBF-2 RBD (Caenorhabditis elegans) (UniProt Q09312). Briefly: ITC. The following applies: cited from earlier work.
The target of data set [2] is gld-1 FBEa RNA. The data set is described as follows: Electrophoretic mobility shift assay (EMSA), RNA binding. Further details: species or system C. elegans. The protocol:
A 3′-Cy5-labeled synthetic RNA was ordered from IDT (gld-1 FBEa, 5′-[…]-3′). The FBF-2 proteins were serially diluted 2-fold from the highest concentration of 10 µM in the buffer used for gel filtration (20 mM HEPES pH 7.4, 150 mM NaCl, and 0.5 mM TCEP). 10 µl of the serially diluted protein samples were mixed with 10 µl RNA (10 nM) in a 2× buffer of 10 mM HEPES pH 7.4, 0.01% (v/v) Tween 20, 0.1 mg/ml BSA, 0.1 mg/ml yeast tRNA, and 2 mM DTT. For experiments in the presence of LST-1, LST-1 proteins at constant concentration were preincubated with FBF-2 at 4 °C for 2 h. The LST-1 concentrations were chosen based on their Kd’s for interaction with FBF-2. The final FBF-2 concentrations ranged from 5000 nM to 0.6 nM, and the LST-1 A or B concentrations were constant at 150 μM or 50 μM, respectively. The protein-RNA mixtures were incubated at 4 °C overnight. The samples were resolved on 10% TBE polyacrylamide gels run at constant voltage (100 V) with 1× TBE buffer at room temperature for 35 min. The gels were scanned and visualized with a Typhoon FLA 9500 imager using the Cy5 channel (excitation wavelength 635 nm). Band intensities were quantified with ImageQuant 5.2 (Cytiva). The data were fit with GraphPad Prism (version 9.2.0) using nonlinear regression with a one-site specific binding model. Mean Kd’s and standard error of the mean (SEM) from three or more technical replicates are reported (Supplementary Table 4). Full scan images for the replicates shown in the main figures and gel images for all replicates are included in a source data file.
A general note: In EMSA bound probe runs differently from free probe, usually more slowly.

In data set [3] the target is gld-1 FBEa RNA. The data set is described as follows: Surface plasmon resonance, RNA-binding kinetics. More on the design: species or system C. elegans. The protocol: Kinetics of FBF-2 binding to the gld-1 FBEa RNA were measured using a 2-channel OpenSPR instrument (Nicoya). A 3′-biotin-labeled synthetic RNA was ordered from Horizon Discovery (gld-1 FBEa, 5′-AUCAUGUGCCAUACA-biotin-3′). The 3′-biotinylated RNA was immobilized on streptavidin-treated biotin sensor chips (Nicoya). All experiments were performed at 20 °C with a buffer of 20 mM HEPES, pH 7.4, 150 mM NaCl, and 2 mM DTT. SPR data were collected using OpenSPR (Nicoya, version 4.3). FBF-2 proteins were injected with a flow rate of 20 µl/min. Data were obtained at five different protein concentrations (25, 50, 100, 200, and 400 nM for wild type RBD + CT; 12.5, 25, 50, 100, and 200 nM for RBD + CT mutants and wild type RBD). Sensor chips were regenerated using 0.05% or 0.1% (v/v) SDS. For each experiment, five binding curves were simultaneously fit using a 1:1 binding model with the TraceDrawer software (Ridgeview Instruments, version 1.9.1). Mean values and standard deviation were calculated from two technical replicates. Despite our efforts, the fit of the binding curves for the association phase of FBF-2 RBD and FBF-2 RBD + CT mutants is poorer than the fit for FBF-2 RBD + CT WT. The appearance of the curves is consistent with the derived kon and koff values, and importantly, the curve fit for the dissociation phase is better.
In general terms: SPR reads the build-up and loss of mass on a sensor chip optically.

Data set [4] in a line: Melting temperature of FBF-2 proteins. The format is physicochemical. The protocol:
Mutants of FBF-2 RBD + CT: Y479A (5′-[…]), L610A (5′-[…]), and Loop6A (E592A, D594A, E597A, E599A, E604A, E605A; 5′-[…]) were generated by site-directed mutagenesis with the primers indicated. Plasmid sequences were verified by DNA sequencing (Azenta Life Sciences). Protein variants were expressed and purified like wild type proteins. Melting temperatures of wild type and mutant proteins were assessed by differential scanning […]. Reaction mixtures (total volume of 20 μl) contained ~0.3 mg/ml FBF-2 proteins and Sypro Orange dye (1:1000 dilution) (Sigma). Fluorescent intensity was collected from 25 °C to 95 °C (3 °C increment/min) with a real time PCR instrument (Applied Biosystems™ QuantStudio 7 Flex System) using excitation and emission wavelengths of 470 nm and 586 nm, respectively. Protein Thermal Shift^TM software (Applied Biosystems, version 1.4) was used to analyze protein melting curves and calculate melting temperatures (Tm).

In data set [5] the test system is C. elegans. The following applies: cited from earlier work; for sterile progeny: fbf-1 loss-of-function background, failure to initiate oogenesis, ref 41 (Wang, et al. 2016); for germline phenotype: animals expressing mutant FBF-2, unpublished, ref personal communication, Kimble lab. From the text:
Our previous structural and biochemical studies relied on FBF-2^164–575, a fragment with the RBD that lacks its intrinsically disordered C-terminal tail but retains its in vivo RNA-binding specificity (Fig. 1a)[17],[18],[36],[39],[40]. […] A worm strain that expresses truncated FBF-2 lacking the C-terminal 26 residues (607-632) was generated in an fbf-1 loss-of-function background. Approximately 11% of the mutant progeny were sterile due to failure to initiate oogenesis, indicating a germline defect. In contrast, worms expressing full-l ... || In the PUF hub, FBF-1 and FBF-2 play a more prominent role than PUF-3 and PUF-11[55]. FBF-1 and FBF-2 amino acid sequences are 91% identical and have largely overlapping functions. […] When the CT of FBF-1 is replaced with the FBF-2 CT, the chimeric protein produces a progenitor region that m ... || page 6: Reviewer #2 (Remarks to the Author): This manuscript uses structural and biochemical approaches to understand how partner proteins and intrinsically disordered regions (IDRs) impact RNA binding of FBF-2. The crystal structure of FBF-2 CT is novel and the proposed role of the CT in autoinhibition by intramolecular interaction with RBD is interesting. However, why this autoinhibition would be needed in vivo is less clear, especially in regard to the interaction with partner proteins. While the authors also mention this shortcoming, some attempt to address the biological consequences of t ...

[6] abbreviates: mean ± SD, two technical replicates, 20 °C, pH 7.4, 1:1 model.

Residue numbers refer to the chain shown, from its start. Names and notes keep the numbering of the source. Values joined by “and” are separate entries in the source; they are usually repeats but may differ in a detail not shown here. Identical values can stand only once. “Also recorded” adds a separate entry of the source. Like-named read-outs stand apart in the source and are kept apart here.

Turning to LST-1 B LST-1 B (from UniProt P91820), the Kd in data set [1] is 50 nM.

In the case of LST-1 A LST-1 A (from UniProt P91820), in data set [1], the Kd was 2100 nM.

B1: FBF-2 RBD + CT Loop6A: FBF-2 RBD + CT with E592A, D594A, E597A, E599A, E604A, E605A (protein)
chain: SNNVLPTWSLDSNGEMRSRLSLSEVLDSGDLMKFAVDKTGCQFLEKAVKGSLTSYQKFQLFEQVIGRKDDFLKLSTNIFGNYLVQSVIGISLATNDDGYTKRQEKLKNFISSQMTDMCLDKFACRVIQSSLQNMDLSLACKLVQALPRDARLIAICVDQNANHVIQKVVAVIPLKNWEFIVDFVATPEHLRQICSDKYGCRVVQTIIEKLTADSMNVDLTSAAQNLRERALQRLMTSVTNRCQELATNEYANYIIQHIVSNDDLAVYRECIIEKCLMRNLLSLSQEKFASHVVEKAFLHAPLELLAEMMDEIFDGYIPHPDTGKDALDIMMFHQFGNYVVQCMLTICCDAVSGRRQTKEGGYDHAISFQDWLKKLHSRVTKERHRLSRFSSGKKMIETLANLRSTHPIYELQSSGHDSFKTDYFSTASAHAGPALAKNGIAAGSLMLEPRSNKSSVSVKFSSSGSHGDD
modifications: left off: His6-SUMO, N-terminal, cleaved
notes: FBF-2 RBD + CT with E592A, D594A, E597A, E599A, E604A, E605A
B1: the Kd was 142 nM and 175 nM and 180 nM in data set [2]; 101 nM in data set [2] (no LST-1, mean ± SEM of independent technical replicates (n = 3-5), 4 °C overnight, pH 7.4, Cy5-RNA 5′-AUCAUGUGCCAUAC-3′); 122 nM in data set [2] (no LST-1, replicate 1); 100 nM in data set [2] (no LST-1, replicate 2); 81 nM in data set [2] (no LST-1, replicate 3); 166 ± 21 nM in data set [2] (pH 7.4). This molecule showed a Kd in data set [3] (derived from on/off rates, mean ± SD, two technical replicates) of 9.5 ± 4.2 nM. Further, the koff in data set [3] (setting [6]) is 0.94 ± 0.05 x10^-3 s^-1; in data set [3] (replicate 1, read-out: koff) it was 0.00097 s⁻¹; in data set [3] (replicate 2, read-out: koff) it was 0.00091 s⁻¹. Moreover, the kon was 10.9 ± 4.3 x10^4 M^-1 s^-1 in data set [3] (setting [6]), 78000 M⁻¹ s⁻¹ in data set [3] (replicate 1) and 139000 M⁻¹ s⁻¹ in data set [3] (replicate 2). Also, the thermal stability entry in data set [4] (in words, vs RBD alone or vs RBD + CT) is reported as “only modestly decreased the thermal stability”. Also, the Tm in data set [4] (mean ± SD, three technical replicates, ~0.3 mg/ml protein, Sypro Orange, 25 to 95 °C, fluorescence) turned out to be 37.58 ± 0.05 °C; in data set [4] (replicate 1), 37.54 °C; in data set [4] (replicate 2), 37.68 °C; in data set [4] (replicate 3), 37.54 °C.

B2: full-length FBF-2: worms expressing full-length FBF-2 in an fbf-1 loss-of-function background (protein, UniProt Q09312 1-632, looked up)
chain: MDQSKMRRTNQFRKTSQKPPSTGIDSYPTPAQSPMAQHETPMWDFNSLNPYFSMLNMNDGINYARHQQNHIVTSRPPTPLTDLMSLRSFQSFPNVFMPVSRSRTSSFIQSDTDSSRLESDDFSQNVRCFSADIDRSKSYGSSKHYHLKYSRPALSRNSRSFTRSNNVLPTWSLDSNGEMRSRLSLSEVLDSGDLMKFAVDKTGCQFLEKAVKGSLTSYQKFQLFEQVIGRKDDFLKLSTNIFGNYLVQSVIGISLATNDDGYTKRQEKLKNFISSQMTDMCLDKFACRVIQSSLQNMDLSLACKLVQALPRDARLIAICVDQNANHVIQKVVAVIPLKNWEFIVDFVATPEHLRQICSDKYGCRVVQTIIEKLTADSMNVDLTSAAQNLRERALQRLMTSVTNRCQELATNEYANYIIQHIVSNDDLAVYRECIIEKCLMRNLLSLSQEKFASHVVEKAFLHAPLELLAEMMDEIFDGYIPHPDTGKDALDIMMFHQFGNYVVQCMLTICCDAVSGRRQTKEGGYDHAISFQDWLKKLHSRVTKERHRLSRFSSGKKMIETLANLRSTHPIYELQSSGHDSFKTDYFSTASEHDGPELEKNGIEEGSLMLEPRSNKSSVSVKFSSSGSHGDD
modifications: full-length
notes: worms expressing full-length FBF-2 in an fbf-1 loss-of-function background
For B2, the “germline progenitor region length” value in data set [5] (expressed as sole FBF protein, vs FBF-1) is listed as “shorter germline progenitor regions than FBF-1”. Further, the sterile progeny in data set [5] was 0%.

B3: FBF-2 L610A: FBF-2 L610A; attempts to generate animals were unsuccessful (protein, UniProt Q09312 1-632, looked up, variant L610A)
Fem-3 mRNA-binding factor 2: B2 chain with L610A
As to B3, in data set [5], the germline phenotype entry was “dominant sterile”.

B4: FBF-2 Y479A: FBF-2 Y479A expressed in animals (Kimble lab, unpublished) (protein, UniProt Q09312 1-632, looked up, variant Y479A)
Fem-3 mRNA-binding factor 2: B2 chain with Y479A
For the molecule B4, in data set [5], the germline phenotype result was “no defects were detected in germline stem cell self-; also recorded: defect in the sperm-to-oocyte switch”.

B5: truncated FBF-2: FBF-2 lacking the C-terminal 26 residues (607-632), expressed in worms (protein, UniProt Q09312 1-606, looked up, fragment)
chain: MDQSKMRRTNQFRKTSQKPPSTGIDSYPTPAQSPMAQHETPMWDFNSLNPYFSMLNMNDGINYARHQQNHIVTSRPPTPLTDLMSLRSFQSFPNVFMPVSRSRTSSFIQSDTDSSRLESDDFSQNVRCFSADIDRSKSYGSSKHYHLKYSRPALSRNSRSFTRSNNVLPTWSLDSNGEMRSRLSLSEVLDSGDLMKFAVDKTGCQFLEKAVKGSLTSYQKFQLFEQVIGRKDDFLKLSTNIFGNYLVQSVIGISLATNDDGYTKRQEKLKNFISSQMTDMCLDKFACRVIQSSLQNMDLSLACKLVQALPRDARLIAICVDQNANHVIQKVVAVIPLKNWEFIVDFVATPEHLRQICSDKYGCRVVQTIIEKLTADSMNVDLTSAAQNLRERALQRLMTSVTNRCQELATNEYANYIIQHIVSNDDLAVYRECIIEKCLMRNLLSLSQEKFASHVVEKAFLHAPLELLAEMMDEIFDGYIPHPDTGKDALDIMMFHQFGNYVVQCMLTICCDAVSGRRQTKEGGYDHAISFQDWLKKLHSRVTKERHRLSRFSSGKKMIETLANLRSTHPIYELQSSGHDSFKTDYFSTASEHDGPELEKNGIEEG
B5: in data set [5], the sterile progeny result is listed as “Approximately 11%”.
